Source: the nanobody polyreactivity screen of Harvey et al. (2022)

Assay: yeast display, Sf9 membrane polyspecificity reagent, FACS + sequencing; frameworks hold sequencing errors
How it was run: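 A nanobody's polyreactivity label depends on the gate it was sorted from. Yeast display cells were stained with 10% biotinylated, detergent-solubilized Sf9 membrane reagent for 1 hour at 4 °C, enriched on streptavidin microbeads and sorted by FACS. The low and high (top ~1%) gates were set on anti-HA fluorescence for expression and streptavidin fluorescence for reagent binding.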

Row | Sequence | polyreactivity (PSR sort gate)
1 | HVQLVESGGGLVQAGGSLRLSCAASGGIFYGNVMGWYRQAPGKERELVADITSVGSTYYADSVKGRFTISRDNAKNTVYLQMNSLKPEDTAVYYCAAEPDHVADSHSGYDYWGQGTQVTVSS | low polyreactivity
2 | HVQLVESGGGLVQAGGSLRLSCAASGGTFTKYAMGWFRQAPGTEMELVAAISWRGTSTYYADSVKGRFTISRDNAKNTVYLQLYSLKPEDTAVHYCLPWVGYGRYKPGYKYDYWGQGTQVTVSS | high polyreactivity
3 | HVQLVESGGGLVQAGGSLRLSCAASGLIFYNYAMGWYRQAPGKERELVAAITGSGGSTYYADSVKGRFTISRDNAKNTVYLQMNSLKPEDTAVYYCAADGIYTFEYWGQGTLVTVSS | low polyreactivity
4 | HVQLVESGGGLVQAGGSLRLSCAASGLTFDVNAMGWYRQAARKERELVAAITADDGSTYYADSVKGRFTISRDNAKNTVYLQMNSLKPEDTAVYYCAADYVNLPYIMDYWGQGTQVTVSS | low polyreactivity
5 | HVQLVESGGGLVQAGGSLRLSCAASGLTFSRYTMGWYRQAPGKERELVAAISRSGASTYYADSVKGRFTISRDNAKNTVYLQMNSLKPEDTAVYYCAKTSTSYGSLRKVTPYPLDYWGQGTQVTVSS | high polyreactivity
6 | HVQLVESGGGLVQAGGSLRLSCAASGRISLFNAMGWYRQAPGKERELVAAITYTGGSTYYADSVKGRFTISRDNAKNTVYLQMNSLKPEDTAVYYCAAEYYYVYTYDYWGQGTQVTVSS | high polyreactivity
7 | HVQLVESGGGLVQAGGSLRLSCAASGRIYWANAKGRYRQAPGKERELVAAISYSGGTYYADSVKGGFTISRDNAKNTVYLQMNSLKPADTAVYFCAAVDRRDGTKRWGFDYWGQGTQVTVSS | high polyreactivity
8 | HVQLVESGGGLVQAGGSLRLSCAASGRTFNVNAMGWYRQAPGKERELVAAIDFSDGRTYYADSVKGRFTISRDNAKNTVYLQMNSLKPEDTAVYYCARSFRVGNTWYDYWGQGTQVTVSS | high polyreactivity
9 | HVQLVESGGGLVQAGGSLRLSCAASGRTFVNNAMGWYRQAPGKERELVAAISQSGSRTYYADSVKGRFTISRDNAKNTVYLQMNSLKPEDTAVYYCAARGARYSTSDYWGQGTQVTVSS | high polyreactivity
10 | HVQLVESGGGLVQAGGSLRLSCAASGSIFFRNTMGWTRQAPGKEREKVAAITRGGGRTYYADSVKGRFTISRDNAKNTVYLQMNSLQPEDTAVYYCNTADYHGRWAFAWYGDYWGQGTQVTVSS | high polyreactivity
11 | HVQLVESGGGLVQAGGSLRLSCAASGSIFWRYAMGWYRQAPGKERELVAAITWSGGTSYADSVKGRFTISRDNAKNTVYLQMNSLKPEDTAVYYCNADGLSYYLYDYWGQGTQVTVSS | low polyreactivity
12 | HVQLVESGGGLVQAGGSLRLSCAASGSSLDYYVMGWYRQAPGNERELVAAIRGGGSTYYADSVKGRFTISRDNAKNTVYLQMKSLKPEDTEVYYCAKDSQTARDFDYWGQGTQVTVSS | low polyreactivity
13 | HVQLVESGGGLVQAGGSLRLSCAASGSSSAKYAMGWYRQAPGKERELVAAITSRADSTYYADSVKGRFTISRDNAKNTVYLQMNSLKPEDTAVYYCNVRITVYRSDVWYFIYDYWGQGTQVTVSS | low polyreactivity
14 | HVQLVESGGGLVQAGGSLRLSCAASGSTFGGNAMGWYRQAPGKERELVAAISKSGGRTFYADSVKGRFTISRDNAKNTVYLQMISLKPEDTAVYYCAAQYRGYGYWGQGTQVTVSS | high polyreactivity
15 | HVQLVESGGGLVQAGGSLRLSCAASGSTFGSYALGWYRQAPGKERELVADISSRGASTYNADSVKGRFTISRDNAKNTVYLQMNSLKPEDTAVSYCATDKLYGRTVRMDYWGQGTQVTVSS | low polyreactivity
16 | HVQLVESGGGLVQAGGSLRLSCAASGSTFGYYTMGWYREAPGKERELVAAISWSGGSTYYADSVKGRFTISRDNAKNTVYLQMNRLKPEDTAVYYCAALGYTYKYYSYYWGQGTQVTVSS | high polyreactivity
17 | HVQLVESGGGLVQAGGSLRLSCAASGSTFIGYDMGWYTQAPGKERELVAAISYYDGTYYADSVNGSFTISRDNAKNTVYLQMNTLKPEDTAVYFCGVYRYDYWGQGTQVTVSS | low polyreactivity
18 | HVQLVESGGGLVQAGGSLRLSCAASGSTFSAYAMGWDRQAPGKERELVASISYSGSSTYYADSVKGRFTISRDNAKNTVYLHMNSLNPEDTAVSSCAADDRYWGPGGPLSRWSRGMYYWGQGTQVTVSS | high polyreactivity
19 | HVQLVESGGGLVQAGGSLRLSCAASGSTFSSYAMGWYRQAPGQERELVAAITGGGANTYYADSVKGRFTISRDNAKNTVYLQMNSLKPEDTAVYYCNARSGYLHSKWTGYYWGQGTQVTVSS | low polyreactivity
20 | HVQLVESGGGLVQAGGSLRLSCAPSGRTFIGYAMGWYRQAPGKERELVAAITSRGRTNYADSVKGRFTISRDNAKNTVYLQMNSLNPEDTAVYYCAARTYGYWYYGFRGDYWGQGTQVTVSS | high polyreactivity
21 | HVQLVESGGGLVQAGGSLRLSCGASGRIFRGNVMGWYRQAPGTERELVAAISWSGGSSYADAVKGRFSISRDNAKNTVYLQMNRLKPDDTAVYYWNADSLDGPKFDYWGQGTQVTVSS | low polyreactivity
22 | HVQLVESGGGLVQAGGSLRLSFAASGFTFRSYAMGWYRKAPGQERELVAAINWRGDSTYYADSVKGRFTISRDNAKNTVYLQMNSLNPEDTAVYYCNAYSGYIRRTASDYWGQGTQVTVSS | high polyreactivity
23 | HVQLVESGGGLVQAGRSLRFSCAASGSIFLYNAMGWYRQAPGKERELVAAISKSGGSTYYADSVKGRFTISRDNAKNTVYLQMNSLKPEDTAVYYCAAGYGRRIRYCSEYDYWGQGTQVTVSS | low polyreactivity
24 | HVQLVESGGGLVQAGVSLRLSCAASGRIFVLYTRGWYRQAPGKDRELVAAISRRGGNTNYADSVKGRFTISRDNAMNTVYLQMNSLKPEDTAVYYCNARWTGARYYYYPMDYWGQGTQVTVSS | high polyreactivity
25 | HVQQQESGGGLVQAGGSLRLSCAASGNISYSRNMGWYRQAPGKERELVAAIDRGAITYYADSVQGRFTISRDNAKNTVYLQIYSLKPEDTAVYYCAAEYHDRWDHRYWGQGTQVTVSS | high polyreactivity
26 | HVQVVESGGGLVQAGGSLRLSCAASGRIFLLYTMGWYRQAPGKERELVAAISSDDSTNYADSVKGRFTISRDNAKNTVYIQMNSLKPEDTAVYYCAAGRKSYYRIYSEYVEFDYWGQGTQVTVSS | low polyreactivity
27 | HVRLQESGGGLVQAGGSLRQSCAASGAISPYYDMGWYRLAPGKEREFVASIAHGGTTYYADSVKGRFTTSRDNAKNTVYLQMNSLKPEDTAVYYCAVAYDVWHSHIYRGQGTQVTVSS | high polyreactivity
28 | HVRLQESGGGLVQAGGSLRQSCAASGAISPYYDMGWYRLAPGKEREFVASIAHGGTTYYADSVKGRFTTSRDNAKYNVYLRMNRLKPEDTAVYFCAAPKRYLGDYWGQGTQVTVSS | high polyreactivity
29 | IIPAGGSLRLSCAASGATLIGYTMGWYRQAPGKERELVDAITWGAGSTNYADSVKGRFTISRDNAKNTVYLQMNSLKPEDTAVYDCNADSISDPRYLGEYDYWGQGTQVTVSS | low polyreactivity
30 | IIQAGGSLRLSCAASGRTFSGYAMGWYRQAPGKERELIADITSGGSTYYADSVKGRFTISRDNAKNTVYLQMNSLKPEDTAVYYCAAERQIRSFWSSRTYEFGYWGQGTQVTVSS | low polyreactivity
